According to PMC6620040, “Structure of the DNA-Bound Spacer Capture Complex of a Type II CRISPR-Cas System” (Molecular Cell, 2019):

B1: Cas2 protein of the CRISPR3-Cas system from S. thermophilus DGCC7710 (natural protein, Streptococcus thermophilus DGCC7710)
chain: MSYRYMRMILMFDMPTDTAEERKAYRKFRKFLLSEGFIMHQFSVYSKLLLNHTANTAMVGRLKANNPKKGNITILTVTEKQFARMIYLYGDKNTSIANSEERLVFLGDNYCDED
notes: Cas2 of the type II-A CRISPR3-Cas system, Streptococcus thermophilus DGCC7710; expressed from the CRISPR3 locus plasmid; source: E. coli BL21 (DE3), expressed from the CRISPR3 locus plasmid (pCas1- and derivatives), in lysate; purified as a complex (Strep-Trap HP, Superdex S200) for cryo-EM
B2: Csn2 protein of the CRISPR3-Cas system from S. thermophilus DGCC7710 (natural protein, Streptococcus thermophilus DGCC7710)
chain: MKINFSLLDEPMEVNLGTVLVIEDVSVFAQLVKEFYQYDEQSNLTIFDSKIRSIRSSELLLITDILGYDINTSQVLKLLHTDIVSQLNDKPEVRSEIDSLVSLITDIIMAECIENELDIEYDEITLLELIKALGVRIETKSCTVFEKIFEILQIFKYLVKKRILVFVNSLSYFSKDEIYQILEYTKLSQADVLFLEPRQIEGIQQFILDKDYILMPYNN
notes: Csn2 of the type II-A CRISPR3-Cas system, Streptococcus thermophilus DGCC7710; expressed from the CRISPR3 locus plasmid; Tetramer (dimer of dimers, conformations Csn2A and Csn2B) in the structures; one Ca2+ per chain modelled; also called StCsn2; Csn2A; source: E. coli BL21 (DE3), expressed from the CRISPR3 locus plasmid (pCas1- and derivatives), in lysate; purified as a complex (Strep-Trap HP, …)
B3: Cas1 protein of the CRISPR3-Cas system from S. thermophilus DGCC7710, bearing a StrepII tag (natural protein, Streptococcus thermophilus DGCC7710)
chain: MAGWRTVVVNIHSKLSYKNNHLIFRNSYKTEMIHLSEIDILLLETTDIVLTTMLVKRLVDENILVIFCDDKRLPTAFLTPYYARHDSSLQIARQIAWKENVKCEVWTAIIAQKILNQSYYLGECSFFEKSQSIMELYHGLERFDPSNREGHSARIYFNTLFGNDFTRESDNDINAALDYGYTLLLSMFAREVVVCGCMTQIGLKHANQFNQFNLASDIMEPFRPIIDRIVYQNRHNNFVKIKKELFSIFSETYLYNGKEMYLSNIVSDYTKKVIKALNQLGEEIPEFRI
notes: Cas1 of the type II-A CRISPR3-Cas system, Streptococcus thermophilus DGCC7710; cloned into pETDUET-1 (pCas1Strep); Forms dimers with two conformations (Cas1A, Cas1B) in the structures; also called StCas1; Strep-tagged Cas1; source: E. coli BL21 (DE3), co-expressed with the rest of the CRISPR3-Cas locus, in lysate; purified as a complex (Strep-Trap HP, Superdex S200) for cryo-EM; not shown: …

Legend:
[1] = target: B3; assay: pull-down; StrepII-tagged Cas1 co-expressed in E. coli with the CRISPR3-Cas locus (all four proteins; also the variants lacking Cas9, the CRISPR array or tracrRNA); StrepTrap column, then size-exclusion chromatography (Superdex S200), SDS-PAGE; 10 mM Tris-HCl pH 7.5, 300 mM KCl, 1 mM EDTA, 1 mM DTT; conditions: partners not purified
[2] = target: the molecule itself; assay: cryo-EM structure; Strep-Trap- and SEC-purified Cas9-Cas1-Cas2-Csn2 sample after DNase I treatment and gel filtration (25 mM Tris pH 7.5, 150 mM NaCl, 1 mM TCEP), graphene oxide coated grids; monomer Cas1_(8)-Cas2_(4)-Csn2_(8) at 3.2 Å (D2), dimer Cas1_(24)-Cas2_(12)-Csn2_(16) at 7.2 Å (D2), filament unit at 7.7 Å (D2); duplex DNA in the central channel

Row | Binder | binding result [1] | stoichiometry N [2]
1 | B1 | binds | 2
2 | B2 |  | 4
3 | B3 |  | 2
